From PMC8673838, “MCPH1 inhibits Condensin II during interphase by regulating its SMC2-Kleisin interface” (eLife, 2021)
Non-standard residues stand in square brackets, D forms with d. No end group written: not given here. 5‑FAM = 5-carboxyfluorescein label; pS = N[C@@H](COP(=O)(O)O)C(=O)O

Columns and labels:
Details in all cases: both partners purified
[1] = biological target: T1, human condensin II pentameric complex (SMC2, SMC4, NCAPH2, NCAPD3, NCAPG2) (human, UniProt O95347 1-1197; Q9NTJ3 1-1288; Q6IBW4 1-605; P42695 1-1498; Q86XI2 1-1143); assay: pull-down; strep-tagged full-length MCPH1 and condensin II separately purified, mixed on strep-tactin sepharose; SDS-PAGE, silver stain
T1 construct: SMC2, human, subunit of condensin II; SMC4, human, subunit of condensin II; NCAPH2, human, kleisin subunit of condensin II; NCAPD3 (CAP-D3), human, HAWK subunit of condensin II; NCAPG2 (CAPG2), human, HAWK subunit of condensin II; It says only 'strep-tagged condensin II'; also called pentameric condensin II; strep-tagged condensin II; source: insect cells, purified as previously described (Kong …)
T1 sequence (O95347 whole entry, chain 1 of 4): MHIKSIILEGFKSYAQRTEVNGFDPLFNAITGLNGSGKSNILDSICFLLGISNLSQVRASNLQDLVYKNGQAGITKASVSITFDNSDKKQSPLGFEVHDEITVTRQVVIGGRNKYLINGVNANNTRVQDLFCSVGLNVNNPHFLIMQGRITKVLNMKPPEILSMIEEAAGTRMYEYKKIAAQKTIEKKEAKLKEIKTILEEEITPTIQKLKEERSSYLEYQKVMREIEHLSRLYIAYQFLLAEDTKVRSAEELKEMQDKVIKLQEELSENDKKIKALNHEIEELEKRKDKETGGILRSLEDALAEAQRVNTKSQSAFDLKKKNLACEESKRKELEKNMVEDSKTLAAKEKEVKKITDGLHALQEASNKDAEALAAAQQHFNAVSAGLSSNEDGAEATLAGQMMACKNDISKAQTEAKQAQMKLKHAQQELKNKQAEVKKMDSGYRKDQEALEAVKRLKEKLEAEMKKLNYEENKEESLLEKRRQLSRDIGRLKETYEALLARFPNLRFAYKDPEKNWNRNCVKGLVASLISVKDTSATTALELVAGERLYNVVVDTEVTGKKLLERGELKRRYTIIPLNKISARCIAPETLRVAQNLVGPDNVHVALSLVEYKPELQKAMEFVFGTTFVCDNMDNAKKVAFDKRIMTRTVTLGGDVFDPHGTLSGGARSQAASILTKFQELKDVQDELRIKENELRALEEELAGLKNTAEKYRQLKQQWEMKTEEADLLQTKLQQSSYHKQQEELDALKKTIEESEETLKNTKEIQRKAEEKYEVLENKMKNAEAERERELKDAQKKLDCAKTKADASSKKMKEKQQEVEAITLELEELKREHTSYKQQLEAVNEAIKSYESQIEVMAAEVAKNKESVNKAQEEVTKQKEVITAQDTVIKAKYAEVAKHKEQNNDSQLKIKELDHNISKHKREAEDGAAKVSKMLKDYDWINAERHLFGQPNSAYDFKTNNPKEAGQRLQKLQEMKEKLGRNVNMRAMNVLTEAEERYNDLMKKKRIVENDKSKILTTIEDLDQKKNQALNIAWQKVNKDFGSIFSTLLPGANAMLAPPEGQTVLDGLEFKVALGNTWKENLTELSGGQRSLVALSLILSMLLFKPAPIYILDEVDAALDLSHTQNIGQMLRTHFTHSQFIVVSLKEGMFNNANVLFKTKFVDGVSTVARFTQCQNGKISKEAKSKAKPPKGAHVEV
T1 sequence (Q9NTJ3 whole entry, chain 2 of 4): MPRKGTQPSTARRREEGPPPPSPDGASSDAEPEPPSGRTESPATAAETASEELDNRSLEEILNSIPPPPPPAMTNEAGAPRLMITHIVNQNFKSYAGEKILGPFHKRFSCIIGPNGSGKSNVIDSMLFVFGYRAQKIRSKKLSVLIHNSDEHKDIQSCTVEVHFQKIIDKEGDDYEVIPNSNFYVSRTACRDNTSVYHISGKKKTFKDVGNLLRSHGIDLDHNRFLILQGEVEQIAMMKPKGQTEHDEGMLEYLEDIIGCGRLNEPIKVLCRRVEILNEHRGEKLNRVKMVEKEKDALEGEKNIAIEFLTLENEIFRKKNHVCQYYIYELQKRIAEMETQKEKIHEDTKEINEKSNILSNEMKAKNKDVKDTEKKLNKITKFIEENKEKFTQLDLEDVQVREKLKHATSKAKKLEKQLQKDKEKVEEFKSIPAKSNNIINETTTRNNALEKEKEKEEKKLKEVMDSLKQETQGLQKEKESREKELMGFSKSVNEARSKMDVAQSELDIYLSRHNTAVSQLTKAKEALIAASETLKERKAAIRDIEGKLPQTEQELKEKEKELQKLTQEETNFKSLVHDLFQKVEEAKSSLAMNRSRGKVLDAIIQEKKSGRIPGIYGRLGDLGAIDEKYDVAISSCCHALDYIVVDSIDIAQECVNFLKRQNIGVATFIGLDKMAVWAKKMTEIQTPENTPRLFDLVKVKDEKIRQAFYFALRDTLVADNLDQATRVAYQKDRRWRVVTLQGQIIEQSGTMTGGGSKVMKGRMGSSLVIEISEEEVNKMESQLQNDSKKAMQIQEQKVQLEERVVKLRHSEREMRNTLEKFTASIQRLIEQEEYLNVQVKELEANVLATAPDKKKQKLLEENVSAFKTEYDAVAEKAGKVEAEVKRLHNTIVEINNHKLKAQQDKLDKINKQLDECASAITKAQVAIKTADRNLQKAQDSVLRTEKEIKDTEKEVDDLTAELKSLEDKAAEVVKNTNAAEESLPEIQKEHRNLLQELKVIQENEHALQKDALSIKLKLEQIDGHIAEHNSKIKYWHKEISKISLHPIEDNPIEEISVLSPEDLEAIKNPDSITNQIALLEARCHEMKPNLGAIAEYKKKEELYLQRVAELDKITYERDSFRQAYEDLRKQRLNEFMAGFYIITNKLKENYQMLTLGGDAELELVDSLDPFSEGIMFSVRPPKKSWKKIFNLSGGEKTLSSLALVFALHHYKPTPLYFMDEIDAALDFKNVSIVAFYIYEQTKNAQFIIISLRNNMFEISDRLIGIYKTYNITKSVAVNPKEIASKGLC
T1 sequence (Q6IBW4 whole entry, chain 3 of 4): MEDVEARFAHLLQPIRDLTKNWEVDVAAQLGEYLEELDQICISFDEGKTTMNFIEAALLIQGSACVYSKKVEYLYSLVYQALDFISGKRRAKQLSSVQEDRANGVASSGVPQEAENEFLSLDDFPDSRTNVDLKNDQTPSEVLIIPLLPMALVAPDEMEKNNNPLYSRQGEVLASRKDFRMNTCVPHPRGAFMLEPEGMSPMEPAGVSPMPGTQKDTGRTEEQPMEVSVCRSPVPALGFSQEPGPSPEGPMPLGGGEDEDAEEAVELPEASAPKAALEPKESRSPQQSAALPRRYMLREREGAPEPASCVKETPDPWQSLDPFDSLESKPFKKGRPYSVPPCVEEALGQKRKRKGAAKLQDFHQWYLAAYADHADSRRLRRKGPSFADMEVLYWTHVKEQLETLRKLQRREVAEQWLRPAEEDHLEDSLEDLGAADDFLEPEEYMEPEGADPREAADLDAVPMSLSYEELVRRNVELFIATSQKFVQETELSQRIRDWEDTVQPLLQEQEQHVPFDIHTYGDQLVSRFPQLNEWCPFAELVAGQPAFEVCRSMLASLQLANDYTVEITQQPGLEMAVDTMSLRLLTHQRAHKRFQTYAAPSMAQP
T1 sequence (P42695 whole entry, chain 4 of 4): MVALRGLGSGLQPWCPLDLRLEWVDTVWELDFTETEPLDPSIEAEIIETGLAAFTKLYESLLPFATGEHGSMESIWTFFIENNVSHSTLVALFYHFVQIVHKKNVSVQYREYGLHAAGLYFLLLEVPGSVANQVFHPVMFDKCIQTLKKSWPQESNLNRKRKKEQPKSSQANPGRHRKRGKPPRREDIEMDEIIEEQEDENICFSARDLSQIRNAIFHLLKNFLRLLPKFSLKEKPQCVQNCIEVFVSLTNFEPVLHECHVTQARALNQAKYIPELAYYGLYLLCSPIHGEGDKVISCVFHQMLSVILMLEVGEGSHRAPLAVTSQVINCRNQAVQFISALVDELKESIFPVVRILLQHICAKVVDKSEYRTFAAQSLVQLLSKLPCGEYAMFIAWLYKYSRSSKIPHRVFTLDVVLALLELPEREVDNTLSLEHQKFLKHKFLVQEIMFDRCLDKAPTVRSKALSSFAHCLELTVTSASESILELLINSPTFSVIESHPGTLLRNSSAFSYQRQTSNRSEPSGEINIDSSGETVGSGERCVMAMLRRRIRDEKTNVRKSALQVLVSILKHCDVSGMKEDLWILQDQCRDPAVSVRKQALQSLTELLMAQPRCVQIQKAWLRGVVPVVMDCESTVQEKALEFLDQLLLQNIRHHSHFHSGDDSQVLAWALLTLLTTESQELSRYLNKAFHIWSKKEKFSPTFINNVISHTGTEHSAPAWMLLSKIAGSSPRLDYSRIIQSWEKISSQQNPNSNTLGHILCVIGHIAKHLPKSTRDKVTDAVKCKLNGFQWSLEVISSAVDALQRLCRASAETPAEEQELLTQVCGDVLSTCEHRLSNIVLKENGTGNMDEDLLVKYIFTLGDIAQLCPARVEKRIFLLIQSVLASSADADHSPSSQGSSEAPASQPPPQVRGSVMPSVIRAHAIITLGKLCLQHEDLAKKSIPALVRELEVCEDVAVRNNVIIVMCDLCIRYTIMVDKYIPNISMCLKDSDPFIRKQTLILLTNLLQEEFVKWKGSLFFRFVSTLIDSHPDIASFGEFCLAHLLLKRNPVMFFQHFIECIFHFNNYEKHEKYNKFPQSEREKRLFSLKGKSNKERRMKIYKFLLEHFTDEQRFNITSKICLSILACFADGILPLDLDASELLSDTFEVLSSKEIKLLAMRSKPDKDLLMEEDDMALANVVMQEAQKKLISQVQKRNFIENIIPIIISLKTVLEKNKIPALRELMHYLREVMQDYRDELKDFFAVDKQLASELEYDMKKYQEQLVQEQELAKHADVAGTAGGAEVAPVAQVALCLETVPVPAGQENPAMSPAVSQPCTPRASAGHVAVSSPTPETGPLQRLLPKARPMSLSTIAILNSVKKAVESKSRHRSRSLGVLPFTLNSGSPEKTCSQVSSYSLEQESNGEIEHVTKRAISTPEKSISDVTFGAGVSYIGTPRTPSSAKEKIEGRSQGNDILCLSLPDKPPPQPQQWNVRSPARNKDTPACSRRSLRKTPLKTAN

[2] = biological target: T1, human condensin II pentameric complex …; assay: fluorescence polarisation; direct binding; 0.3 µM 5-FAM peptide, 0.625-5 µM condensin II complex; 20 mM Tris pH 7.5, 200 mM NaCl, 1 mM DTT; room temperature
[3] = biological target: T1, human condensin II pentameric complex …; assay: fluorescence polarisation; competition; 0.63 µM condensin II and 0.3 µM 5-FAM peptide fixed, unlabelled peptide in two-fold series; 20 mM Tris pH 7.5, 200 mM NaCl, 1 mM DTT; fit for directly competitive binding
[4] = biological target: T2, tetrameric condensin II lacking NCAPD3 (human, UniProt O95347 1-1197; Q9NTJ3 1-1288; Q6IBW4 1-605; Q86XI2 1-1143); assay: pull-down; strep-tagged condensin complexes (0.1 µM) with at least a 10-fold molecular excess of MBP MCPH1 constructs or MBP, Strep-tactin sepharose, 20 mM Tris pH 7.5, 150 mM NaCl, 10 % glycerol, 1 mM DTT; five washes; Coomassie or silver stain
T2 construct: SMC2, human; SMC4, human; NCAPH2, human; NCAPG2, human; also called tetrameric condensin II lacking the CAP-D3 subunit; source: insect cells, purified as previously described (Kong et al., 2020); copies: + + +
T2 sequence (O95347 whole entry, chain 1 of 3): as the sequence (O95347 whole entry, chain 1 of 4) above
T2 sequence (Q9NTJ3 whole entry, chain 2 of 3): as the sequence (Q9NTJ3 whole entry, chain 2 of 4) above
T2 sequence (Q6IBW4 whole entry, chain 3 of 3): as the sequence (Q6IBW4 whole entry, chain 3 of 4) above

[5] = biological target: T3, NCAPG2 subunit of human condensin II (human, UniProt Q86XI2 1-1143); assay: as above
T3 construct: NCAPG2, human, HAWK subunit of condensin II; Never tested alone: the contact is drawn from complexes with and without this subunit; source: insect cells, as a subunit of purified condensin II (Kong et al., 2020)
T3 sequence (looked up): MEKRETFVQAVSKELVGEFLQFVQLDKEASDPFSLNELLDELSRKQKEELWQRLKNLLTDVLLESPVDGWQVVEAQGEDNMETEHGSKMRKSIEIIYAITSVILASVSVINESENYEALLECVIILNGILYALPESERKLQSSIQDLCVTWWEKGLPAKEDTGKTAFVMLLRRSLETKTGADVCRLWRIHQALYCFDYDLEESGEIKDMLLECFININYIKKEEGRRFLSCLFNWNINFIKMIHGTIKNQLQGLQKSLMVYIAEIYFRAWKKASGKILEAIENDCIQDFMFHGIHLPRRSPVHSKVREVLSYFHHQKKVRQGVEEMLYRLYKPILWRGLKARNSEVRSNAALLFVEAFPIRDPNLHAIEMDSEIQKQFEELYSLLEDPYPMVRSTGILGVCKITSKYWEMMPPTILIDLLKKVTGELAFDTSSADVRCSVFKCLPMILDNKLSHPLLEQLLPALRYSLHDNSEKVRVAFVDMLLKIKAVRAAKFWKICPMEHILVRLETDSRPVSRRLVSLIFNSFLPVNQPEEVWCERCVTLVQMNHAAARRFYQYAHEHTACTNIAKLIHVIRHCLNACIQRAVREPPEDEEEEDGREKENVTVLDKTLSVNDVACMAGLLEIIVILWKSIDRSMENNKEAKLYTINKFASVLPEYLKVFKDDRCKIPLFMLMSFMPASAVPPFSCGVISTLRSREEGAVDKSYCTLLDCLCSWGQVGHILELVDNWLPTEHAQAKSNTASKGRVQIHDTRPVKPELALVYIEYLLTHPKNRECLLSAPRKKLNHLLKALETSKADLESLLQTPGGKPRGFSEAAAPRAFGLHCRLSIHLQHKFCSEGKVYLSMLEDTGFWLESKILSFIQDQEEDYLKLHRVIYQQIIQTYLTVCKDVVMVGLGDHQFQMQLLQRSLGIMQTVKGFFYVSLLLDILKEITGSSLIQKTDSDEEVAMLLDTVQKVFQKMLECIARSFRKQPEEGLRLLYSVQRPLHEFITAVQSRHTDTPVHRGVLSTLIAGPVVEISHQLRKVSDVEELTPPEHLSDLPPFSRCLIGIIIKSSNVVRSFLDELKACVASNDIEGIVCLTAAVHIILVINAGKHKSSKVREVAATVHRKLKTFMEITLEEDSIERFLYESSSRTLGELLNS

[6] = biological target: T1, human condensin II pentameric complex …; assay: native gel or EMSA; condensin II at increasing concentrations with MCPH1_(1-435)-MBP, MBP or 1 µM 5-FAM peptide and 50 nM Cy5-labelled 50 bp dsDNA; 15 min on ice; 2 % agarose, 0.5 x TBE
[7] = biological target: T4, condensin II with Q-loop mutation (SMC2 Q147L, SMC4 Q229L) (human, UniProt O95347 1-1197; Q9NTJ3 1-1288; Q6IBW4 1-605; P42695 1-1498; Q86XI2 1-1143, SMC2 Q147L | SMC4 Q229L); assay: SEC; complex of condensin II (wild type or Q-loop mutant) with MCPH1_(1-435)MBP purified by gel filtration on Superose 6 10/300 in 20 mM Tris pH 7.5, 150 mM NaCl, 1 mM DTT, for ATPase assays
T4 construct: SMC2, human, Q-loop mutant; SMC4, human, Q-loop mutant; NCAPH2, human; NCAPD3, human; NCAPG2, human; also called ATPase hydrolysis deficient Q-loop mutant condensin II; source: insect cells, purified as previously described (Kong et al., 2020); copies: + + + +
T4 sequence (O95347 whole entry Q147L, chain 1 of 4): as the sequence (O95347 whole entry, chain 1 of 4) above, with Q147L counted along it
T4 sequence (Q9NTJ3 whole entry Q229L, chain 2 of 4): as the sequence (Q9NTJ3 whole entry, chain 2 of 4) above, with Q229L counted along it
T4 sequence (Q6IBW4 whole entry, stated change not applied, chain 3 of 4): as the sequence (Q6IBW4 whole entry, chain 3 of 4) above
T4 sequence (P42695 whole entry, stated change not applied, chain 4 of 4): as the sequence (P42695 whole entry, chain 4 of 4) above

[8] = biological target: T1, human condensin II pentameric complex …; assay: as above
[9] = biological target: T1, human condensin II pentameric complex …; assay: pull-down; strep-tagged condensin complexes (0.1 µM) with at least a 10-fold molecular excess of MBP MCPH1 constructs or MBP, Strep-tactin sepharose, 20 mM Tris pH 7.5, 150 mM NaCl, 10 % glycerol, 1 mM DTT; five washes; Coomassie or silver stain

B1: strep-tagged full-length human MCPH1 (natural protein, UniProt Q8NEM0 1-835, looked up)
chain: MAAPILKDVVAYVEVWSSNGTENYSKTFTTQLVDMGAKVSKTFNKQVTHVIFKDGYQSTWDKAQKRGVKLVSVLWVEKCRTAGAHIDESLFPAANMNEHLSSLIKKKRKCMQPKDFNFKTPENDKRFQKKFEKMAKELQRQKTNLDDDVPILLFESNGSLIYTPTIEINSRHHSAMEKRLQEMKEKRENLSPTSSQMIQQSHDNPSNSLCEAPLNISRDTLCSDEYFAGGLHSSFDDLCGNSGCGNQERKLEGSINDIKSDVCISSLVLKANNIHSSPSFTHLDKSSPQKFLSNLSKEEINLQRNIAGKVVTPDQKQAAGMSQETFEEKYRLSPTLSSTKGHLLIHSRPRSSSVKRKRVSHGSHSPPKEKCKRKRSTRRSIMPRLQLCRSEDRLQHVAGPALEALSCGESSYDDYFSPDNLKERYSENLPPESQLPSSPAQLSCRSLSKKERTSIFEMSDFSCVGKKTRTVDITNFTAKTISSPRKTGNGEGRATSSCVTSAPEEALRCCRQAGKEDACPEGNGFSYTIEDPALPKGHDDDLTPLEGSLEEMKEAVGLKSTQNKGTTSKISNSSEGEAQSEHEPCFIVDCNMETSTEEKENLPGGYSGSVKNRPTRHDVLDDSCDGFKDLIKPHEELKKSGRGKKPTRTLVMTSMPSEKQNVVIQVVDKLKGFSIAPDVCETTTHVLSGKPLRTLNVLLGIARGCWVLSYDWVLWSLELGHWISEEPFELSHHFPAAPLCRSECHLSAGPYRGTLFADQPAMFVSPASSPPVAKLCELVHLCGGRVSQVPRQASIVIGPYSGKKKATVKYLSEKWVLDSITQHKVCAPENYLLSQ
notes: MCPH1, human, full length; pLIB MCPH1 from Genscript; also called full-length MCPH1; microcephalin; source: High Five insect cells (baculovirus), purified (StrepTrap, SEC)
Does B1 bind [1]?
Result: binds

B2: 5-FAM-labelled MCPH1_(407-424) peptide (peptide)
peptide: {5‑FAM}-CGESSYDDYFSPDNLKER
notes: also called 5FAM-MCPH1; source: synthetic peptide (Genscript)
With B2 as the binder, how does the Kd [2] read?
Its Kd is 0.64 µM.

How did the Kd [3] turn out when CGESSYDDYFSPDNLKER (source: synthetic peptide (Genscript)) [MCPH1_(407-424) peptide, wild-type, unlabelled] was run?
Its Kd is 5.3 ± 1 µM.

B3: MCPH1_(407-424) peptide phosphorylated at serine 417 (peptide)
peptide: CGESSYDDYF[pS]PDNLKER
notes: S417 is phosphoserine; also called MCPH1pS417; source: synthetic peptide (Genscript)
With B3 as the binder, how does the Kd [3] read?
The Kd was 53 ± 8 µM.

B4: MCPH1_(1-435)-MBP (domain or fragment, human, UniProt Q8NEM0 1-435, looked up)
chain: MAAPILKDVVAYVEVWSSNGTENYSKTFTTQLVDMGAKVSKTFNKQVTHVIFKDGYQSTWDKAQKRGVKLVSVLWVEKCRTAGAHIDESLFPAANMNEHLSSLIKKKRKCMQPKDFNFKTPENDKRFQKKFEKMAKELQRQKTNLDDDVPILLFESNGSLIYTPTIEINSRHHSAMEKRLQEMKEKRENLSPTSSQMIQQSHDNPSNSLCEAPLNISRDTLCSDEYFAGGLHSSFDDLCGNSGCGNQERKLEGSINDIKSDVCISSLVLKANNIHSSPSFTHLDKSSPQKFLSNLSKEEINLQRNIAGKVVTPDQKQAAGMSQETFEEKYRLSPTLSSTKGHLLIHSRPRSSSVKRKRVSHGSHSPPKEKCKRKRSTRRSIMPRLQLCRSEDRLQHVAGPALEALSCGESSYDDYFSPDNLKERYSENLPPESQL
notes: the text says the tag was moved to the C-terminus for this experiment; source: E. coli BL21 (DE3) pLysS, purified (Ni-NTA, ion exchange or heparin); not shown: MBP, C-terminal, kept
Does B4 bind [4]?
Result: binds

Does B4 bind [5]?
Result: binds

Does B4 bind [6]?
Result: binds

B5: MCPH1_(1-435)MBP after removal of the N-terminal 6xHis tag (domain or fragment, human, UniProt Q8NEM0 1-435, looked up)
chain: B4 chain
notes: Same construct as m11, His tag cut off by TEV before gel filtration with condensin II; source: E. coli BL21 (DE3) pLysS, purified (Ni-NTA, ion exchange or heparin, SEC), treated with TEV protease; not shown: His6, N-terminal, cleaved; MBP, C-terminal, kept
What does the source list for B5?
binding result [7]: binds; binding result [8]: binds

B6: MBP-MCPH1_(1-435) (domain or fragment, human, UniProt Q8NEM0 1-435, looked up)
chain: B4 chain
notes: source: E. coli BL21 (DE3) pLysS, purified (Ni-NTA, ion exchange or heparin); not shown: MBP, N-terminal, kept
Does B6 bind [9]?
Result: binds

B7: MBP-MCPH1_(196-435) (domain or fragment, human, UniProt Q8NEM0 196-435, looked up)
chain: QMIQQSHDNPSNSLCEAPLNISRDTLCSDEYFAGGLHSSFDDLCGNSGCGNQERKLEGSINDIKSDVCISSLVLKANNIHSSPSFTHLDKSSPQKFLSNLSKEEINLQRNIAGKVVTPDQKQAAGMSQETFEEKYRLSPTLSSTKGHLLIHSRPRSSSVKRKRVSHGSHSPPKEKCKRKRSTRRSIMPRLQLCRSEDRLQHVAGPALEALSCGESSYDDYFSPDNLKERYSENLPPESQL
notes: as for B6
Does B7 bind [9]?
Result: binds

B8: MBP-MCPH1_(348-469) (domain or fragment, human, UniProt Q8NEM0 348-469, looked up)
chain: RPRSSSVKRKRVSHGSHSPPKEKCKRKRSTRRSIMPRLQLCRSEDRLQHVAGPALEALSCGESSYDDYFSPDNLKERYSENLPPESQLPSSPAQLSCRSLSKKERTSIFEMSDFSCVGKKTR
notes: MCPH1, human, residues 348-469; This construct is named in the results only; also called His-MBP-MCPH1 348-469; source: E. coli, purified; not shown: MBP, N-terminal, kept
Does B8 bind [9]?
Result: binds
